# From publication PMC8580317
# “And” between values parts separate entries of the source, which are not always exact repeats. Identical values can stand only once.
# T1: Nluc-FZD6-Q171K-Cy3 sensor (human) (UniProt O60353)
# T1 sequence (chain, trans-cyclooct-2-ene-L-lysine (TCO*K) at 171, labelled with Tet-Cy3): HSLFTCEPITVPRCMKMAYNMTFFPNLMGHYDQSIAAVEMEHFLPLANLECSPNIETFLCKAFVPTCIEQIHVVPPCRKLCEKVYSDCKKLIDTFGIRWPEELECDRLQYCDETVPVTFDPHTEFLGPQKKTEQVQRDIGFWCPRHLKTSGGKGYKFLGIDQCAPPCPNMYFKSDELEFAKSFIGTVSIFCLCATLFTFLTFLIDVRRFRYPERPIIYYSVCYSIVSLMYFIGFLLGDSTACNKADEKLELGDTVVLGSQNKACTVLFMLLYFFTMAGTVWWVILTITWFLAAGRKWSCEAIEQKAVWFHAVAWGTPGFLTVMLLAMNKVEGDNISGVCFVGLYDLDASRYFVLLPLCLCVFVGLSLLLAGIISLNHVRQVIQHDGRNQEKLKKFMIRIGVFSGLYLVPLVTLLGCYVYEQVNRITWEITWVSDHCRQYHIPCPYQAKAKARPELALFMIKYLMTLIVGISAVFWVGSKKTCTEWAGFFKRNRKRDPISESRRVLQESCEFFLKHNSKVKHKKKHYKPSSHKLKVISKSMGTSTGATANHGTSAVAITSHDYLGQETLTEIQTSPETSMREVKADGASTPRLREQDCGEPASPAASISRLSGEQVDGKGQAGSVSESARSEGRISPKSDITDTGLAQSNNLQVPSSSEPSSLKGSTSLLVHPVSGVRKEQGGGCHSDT
# T2: Nluc-FZD6-K466K-Cy3 dimer mutant (D365A/R368A/Y369A) (human) (UniProt O60353)
# T2 sequence (chain, trans-cyclooct-2-ene-L-lysine (TCO*K) at 466, labelled with Tet-Cy3): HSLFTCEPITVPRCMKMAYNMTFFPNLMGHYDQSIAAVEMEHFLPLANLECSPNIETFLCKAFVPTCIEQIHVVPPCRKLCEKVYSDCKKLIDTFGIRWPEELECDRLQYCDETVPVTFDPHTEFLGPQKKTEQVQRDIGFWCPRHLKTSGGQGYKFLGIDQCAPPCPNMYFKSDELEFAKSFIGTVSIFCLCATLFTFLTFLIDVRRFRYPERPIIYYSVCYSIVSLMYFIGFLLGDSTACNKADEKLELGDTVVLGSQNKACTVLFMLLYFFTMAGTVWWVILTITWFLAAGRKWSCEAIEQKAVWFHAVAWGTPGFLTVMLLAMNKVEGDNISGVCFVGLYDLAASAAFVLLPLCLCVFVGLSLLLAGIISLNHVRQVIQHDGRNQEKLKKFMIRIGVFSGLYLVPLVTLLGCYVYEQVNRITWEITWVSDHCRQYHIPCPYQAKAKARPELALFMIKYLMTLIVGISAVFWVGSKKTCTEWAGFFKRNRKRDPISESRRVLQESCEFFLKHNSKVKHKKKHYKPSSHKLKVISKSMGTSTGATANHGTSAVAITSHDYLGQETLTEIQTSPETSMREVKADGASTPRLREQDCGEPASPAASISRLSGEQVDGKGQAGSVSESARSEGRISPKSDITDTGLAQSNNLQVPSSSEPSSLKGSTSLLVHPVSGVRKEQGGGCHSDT
# Tests used:
# FZD5 CRD = FZD5 CRD (UniProt Q13467); conditions: cited from earlier work
# [1] = target: Nluc-FZD6-K466K-Cy3 sensor (human) (UniProt O60353)
# [2] = target: T1, Nluc-FZD6-Q171K-Cy3 sensor (human)
# [3] = target: Nluc-FZD5-Q493K-Cy3 sensor (human) (UniProt Q13467)
# [4] = target: Nluc-FZD6-K466K-Cy3 sensor (human) (UniProt O60353); remark: listed apart in the source
# [5] = target: T2, Nluc-FZD6-K466K-Cy3 dimer mutant (D365A/R368A/Y369A) (human)
# [6] = target: Nluc-FZD6-K466K-Cy3 sensor (human) (UniProt O60353); remark: listed apart in the source
"fitted maximal ∆BRET amplitude of the Cy3-labelled sensor upon WNT-5A (3 μg/ml), HEK293T cells [1] [%]","fitted maximal ∆BRET amplitude of the Cy3-labelled sensor upon WNT-5A (3 μg/ml), HEK293T cells [2] [%]","maximal ∆BRET amplitude of the Cy3-labelled sensor upon WNT-5A (3 μg/ml), HEK293T cells [3] [%]","EC50 of the WNT-5A-induced BRET signal of the sensor (concentration-response curve), HEK293T cells [4]","fitted plateau of the WNT-5A-induced BRET response of the sensor, HEK293T cells [5] [%]","fitted plateau of the WNT-5A-induced BRET response of the sensor (experiment beside the dimer mutant), HEK293T cells [6] [%]",Molecule,Kd (FZD5 CRD) [nM]
–,–,–,–,–,–,WNT-3A (from UniProt P56704),3.1
-26.4,-11.6,-15.6,22.4 nM and 850 ng/ml,-10.2,-19.7,recombinant WNT-5A (ligand) IIGAQPLCSQLAGLSQGQKKLCHLYQDHMQYIGEGAKTGIKECQYQFRHRRWNCSTVDNTSVFGRVMQIGSRETAFTYAVSAAGVVNAMSRACREGELSTCGCSRAARPKDLPRDWLWGGCGDNIDYGYRFAKEFVDARERERIHAKGSYESARILMNLHNNEAGRRTVYNLADVACKCHGVSGSCSLKTCWLQLADFRKVGDALKEKYDSAAAMRLNSRGKLVQVNSRFNSPTTQDLVYIDPSPDYCVRNESTGSLGTQGRLCNKTSEGMDGCELMCCGRGYDQFKTVQTERCHCKFHWCCYVKCKKCTEIVDQFVCK,–
